Assay results published in the DeepSol protein solubility set.

assay: soluble on expression in E. coli; label from the status in PepcDB or PDB records

| Sequence | soluble on expression in E. coli |
| --- | --- |
| MATATPVPPRMGSRAGGPTTPLSPTRLSRLQEKEELRELNDRLAVYIDKVRSLETENSALQLQVTEREEVRGRELTGLKALYETELADARRALDDTARERAKLQIELGKCKAEHDQLLLNYAKKESDLNGAQIKLREYEAALNSKDAALATALGDKKSLEGDLEDLKDQIAQLEASLAAAKKQLADETLLKVDLENRCQSLTEDLEFRKSMYEEEINETRRKHETRLVEVDSGRQIEYEYKLAQALHEMREQHDAQVRLYKEELEQTYHAKLENARLSSEMNTSTVNSAREELMESRMRIESLSSQLSNLQKESRACLERIQELEDLLAKEKDNSRRMLTDKEREMAEIRDQMQQQLNDYEQLLDVKLALDMEISAYRKLLQGEEERLKLSPSPSSRVTVSRASSSRSVRTTRGKRKRVDVEESEASSSVSISHSASATGNVCIEEIDVDGKFIRLKNTSEQDQPMGGWEMIRKIGDTSVSYKYTSRYVLKAGQTVTIWAANAGVTASPPTDLIWKNQNSWGTGEDVKVILKNSQGEEVAQRSTVFKTTIPEEEEEEEEAAGVVVEEELFHQQGTPRASNRSCAIM | soluble |
| MAGDPMSATETITTNARVLGADPLVKDGFGEEDMLTLVLPYIKTAREGVLRLGELLETYGTYESNGIAFADTEEIWWLKTIGGHNWIARRVPDDAYVTNPNQLGIDHYEFENPDDYLASPDIRDFINKHHLDLTYSNEHFNPRYAFGSQRDKDHHYNTPRARAMLEHHHHHH | not soluble |
| MSLSAPKQWQVGIVGYGEVGKILAEDLRAQGVKVAAYDVKLADDRGGPLREHASRHDVALTTSHAELAARSDFIISAVTASQTVAVAEACAGAINQGTWFLDFNSASPGAKQRAASLIDGAQGRYVEGAVMTSVPPYRIKVPLLLGGAYAAELAPLINTLGFAAKPASDQLGVASATKMCRSIMIKGLEAMVIESFTTARAYGVEDAVIASLQETFPQIDWEKQGAYFFQRVIAHGRRRAEEVREVAETVREAGLTPWSAQGTAERQAWVADLADEGLFGTRGASGFARSPDWRTEADRILAKVKDETKTEGHHHHHH | not soluble |
| MGSDKIHHHHHHATAPSPDFNEARFRNDIKILSSDAFEGRAPTTAGEKLTLDYLSTAFKAAGLKGTNNGSFLQSVPMVTYNASENQAIRLGNLHPAYRKDIVLGSRHNNQGVEISNAPLVFVGYGIKAPEYDWDDYAGLDMQGKIAVILVNDPGFAAPESGKFKGKAMTYYGRWSYKFEEASRQGALGAIIIHDTAPASYPWSVIENSWTGPQQDLADASQTDSRVQVEGWMTLDTAKALFDEAGLSLDTLSQEAALTPGNHDLKQSADIAFTNSATFTDSYNLVATLPGTDRADEHILFTAHWDHIGKDDSRDGDKIYNGALDNASGVAGIVEIARQFAALDAMGFKNRRSITFIATTGEEQGLLGSRYYAANPLFPIDKTIAVLNLDSTNVFGRTKDFTIVGKGQSQLEDYLVAAAKAQGREAVAEKNPASGGFFRSDHFSFAKLGVSAAFAGGGSIPLDDATATYKAEMQQKMKGCYHNVCDEYRADWDLSGALQDLALYYDVARTLANNEHRPGYYQKSEFYPLRPAN | not soluble |
| MKNLTTIKQTNKNVKQERRKKYADLAIQGTNNSSIASKRSVELLYLPKLSSANNFQMDKNNKLLEYFKFFVPKKIKRSPCINRGYWLRLFAIRSRLNSIIEQTPQDKKIVVVNLGCGYDPLPFQLLDTNNIQSQQYHDRVSFIDIDYSDLLKIKIELIKTIPELSKIIGLSEDKDYVDDSNVDFLTTPKYLARPCDLNDSKMFSTLLNECQLYDPNVVKVFVAEVSLAYMKPERSDSIIEATSKMENSHFIILEQLIPKGPFEPFSKQMLAHFKRNDSPLQSVLKYNTIESQVQRFNKLGFAYVNVGDMFQLWESADEATKKELLKVEPFDELEEFHLFCHHYVLCHATNYKEFAFTQGFLFDRSISEINLTVDEDYQLLECECPINRKFGDVDVAGNDVFYMGGSNPYRVNEILQLSIHYDKIDMKNIEVSSSEVPVARMCHTFTTISRNNQLLLIGGRKAPHQGLSDNWIFDMKTREWSMIKSLSHTRFRHSACSLPDGNVLILGGVTEGPAMLLYNVTEEIFKDVTPKDEFFQNSLVSAGLEFDPVSKQGIILGGGFMDQTTVSDKAIIFKYDAENATEPITVIKKLQHPLFQRYGSQIKYITPRKLLIVGGTSPSGLFDRTNSIISLDPLSETLTSIPISRRIWEDHSLMLAGFSLVSTSMGTIHIIGGGATCYGFGSVTNVGLKLIAIAK | soluble |
| EIEEIKITMDVLVASEDVMVTVTKEGYVKRTSLRSYAASNGELPGMKEGDYLLGRYEMNTQDTLLLFTKKGNYLYLPVHQLPDIRWKDNGQHVANLVTVDKDDDILTTLAVKEFSEE | soluble |
| MTENVNSSGDSAIKSEDKEEVTVIQEGQAKVGFHGPVFYNPVQEFNRDLTVTVLRQFSADHQKWAEEQKQLKTEEEPPKKKNKLAINEDGKIRILDALSASGLRALRFSKEVPNVGFIMANDFSDNAVASIQENVKLNGVEDIVEAHFGDAVMTMMEHRGIDKRFHAVDLDPYGTASTFLDSAVQCVADRGILMVTCTDMAVLCGNTPEACYNKYDAVTTRMKCCHEVGLRILLRAIDSAANRYTRYIEPLVSISVDFYVRVFVRVHTGAFQAKQSGTKVGTVLVCSGCHSMEPLVLLKRGEGNQQSKYSIPTVRHSISGPGNRCIHCLLPLHQIGPIYLAPIHSKPFVTSLLERLKSTPEAERLGTHGRLQGVLTMVNEELDDVLYYEHNQMANVVKVSVPKSQSVRSAILNAGFKVSGSHCNPRAIKTNAPMHLLWDIYRQVAKDTSVDREKRLAKESAGYHILGQPITNTVNFTLHPGAIEQAKKENLVRFQCNKGKNWGPRQKAKGSVNSTKAGFQLTEHKE | not soluble |
| MNMNAKIIDQDNKGIGVRVHDNDETEHTVAVGFDGEIQGHSQDGYPDDPAKRTGKENEYVSQARRYAKYYVAKEKGYDVLPWDRDTAAMQRVQTAIESLSDEDFEKYFGTYFDQINSRLPNVTAPVPEPDAVGDDEFVLYLLDVYLDEAGRIEAVSDIHFLYLDDNRERQVVLGDQPLNRDPDARLQLKPNYLPSLEVAQEFFVYHLRCQIRDCYLLRGEEPPEQYRVIGPGLYDAATRYLYEDRPYRPYHKLHADIPGYSLEFDYGFGEQGKEMAKIAGAVADNK | not soluble |
| MSLMKCLLVSSVEGYSGKSGIIIALGLKLREMGYEVGYFKALGVNTVKVGDRAVEEDSLITAKILGVEEDVCPVVLDRPYIDFATSVDPVVLRKAVLDRFTEVSEGKDVVIVEGSQNYRTGVAVGIDDASVAKMLSAKVLLVGKYVNDFVVDEVLAAKSAFGTMLEKVVFNQVSGYKMSYIEGIARKVLNEAGLDIVGAIPRNPVLAGLSVEEIREAVSGEYLIEPREEKMVEQVVIGAMSPQSALRYLREARNAALVTGGDRSDLLLTALEMPNVRCLILTGNLEPVQLVLTKAEERGVPVILTGHDTLTAVSRLESVFGRTRIRGEPKVGIMRELFESHVNVKTIIEYLGLDEGHHHHHH | soluble |
| MSLGIENDRKLVVNCLPLTEAERAQFTRAAKGMPQEFVGDPAQRGSMNWTAEIPDELKAYATAVIGNITPETCAQCPRLEWLQTWSAGVDKYQHPGILQPGSMLTNATGAYGQSVSEHMFAMMWAIMKNLHIYAVGNPNAAWQDAGRVISPDGKTALIIGTGDIGSHFARLCKSVGMSTIGIRRNPTVEAPGIDHMVGFESLDDVLQYADVIAMCVPSTPSTHHLLNAERIAKLKTDATVINAGRGDAIDTQALADALANGMIRGAGLDVTEPEPLPAASPLWSEPKCLITPHVAGGNHLESTERRIIAIALGNVRCYANGQSLDNRMPLKGEGHHHHHH | soluble |
| MSSKGSVVLAYSGGLDTSCILVWLKEQGYDVIAYLANIGQKEDFEEARKKALKLGAKKVFIEDVSREFVEEFIWPAIQSSALYEDRYLLGTSLARPCIARKQVEIAQREGAKYVSHGATGKGNDQVRFELSCYSLAPQIKVIAPWRMPEFYNRFKGRNDLMEYAKQHGIPIPVTPKNPWSMDENLMHISYEAGILENPKNQAPPGLYTKTQDPAKAPNTPDILEIEFKKGVPVKVTNVKDGTTHQTSLELFMYLNEVAGKHGVGRIDIVENRFIGMKSRGIYETPAGTILYHAHLDIEAFTMDREVRKIKQGLGLKFAELVYTGFWHSPECEFVRHCIAKSQERVEGKVQVSVLKGQVYILGRESPLSLYNEELVSMNVQGDYEPTDATGFININSLRLKEYHRLQSKVTAK | not soluble |
| MGSDKIHHHHHHMYNEGVTSPSQLARKKNATDKWHGSSIRKILENPHYTGTLQQCREYRPSVTSKRRRSVNLENQIIIEKSHEPIIPLEDFLIVQEILITRKRRRPQAEVHLFTNTAVCKDCRRSMHFKKNRKGYVCGSYNKHGLKACSDHYVSEIDLTDKVITNLNKIYLKFSKENYFKELSEKALKYKEKIESKIIEINEKLNDKKRDKSNLVISLANGVISKEDYQLAINITNEDISNFETTLHQLSKDLEFQKIEKEIIDFKKSLDKFMKEGTLTPEMLHLLVDEIEVHANGTIEINYRFREPTVPSA | not soluble |
| SNAMSDTLYIKMDQAVEITKKQVTVGDVAKLQCKNKNITNRLKSMKLLEDTTKGKKRYIVSIMKIIEMADQTFQNVDIQNIGETECVVEFKTPKKDDGPM | soluble |
| MGSSHHHHHHSSGLVPRGSRHSTLDFMLGAKADGETILKGLQSIFQEQGMAESVHTWQDHGYLATYTNKNGSFANLRIYPHGLVLLDLQSYDGDAQGKEEIDSILNKVEERMKELSQDSTGRVKRLPPIVRGGAIDRYWPTADGRLVEYDIDEVVYDEDSPYQNIKILHSKQFGNILILSGDVNLAESDLAYTRAIMGSGKEDYTGKDVLILGGGDGGILCEIVKLKPKMVTMVEIDQMVIDGCKKYMRKTCGDVLDNLKGDCYQVLIEDCIPVLKRYAKEGREFDYVINDLTAVPISTSPEEDSTWEFLRLILDLSMKVLKQDGKYFTQGNCVNLTEALSLYEEQLGRLYCPVEFSKEIVCVPSYLELWVFYTVWKKAKP | soluble |
| MGSDKIHHHHHHMVKIAVLGLGRVGLRAAYNLASRGFDVLGLDASNDAVSRARSLGLEARLYDVEGRKAGEYLRGQRVVAAFIALPYPVASRAVAHLSSAGIPVVVASIKPLRIDPGVVRAPILTEVGVSPGLSNVILYSMAAETGGGVSARVYVGSFGAREDGLLSHASTWRVEEMLEQYVTPAKLIQDGSEAVADPLDPSLWMEYSDPEHGVLECFPSQGLAGFISRRGSLFKELMECSLRRRGHLKVVLTMRGLGLLDSTPLKVSGCIVRPFDMAVKLVETRYPPDVGDVAVFTVEARRGGRWETLARASLRHGGGWSASSKMVGGASSAFAEVFAAEGLSEEEPGIIYPEDLYELGLAEKLLSLLPSHGVSLEVG | not soluble |
| YNIYNNPKEANNRKDTVLYLMHKHNRINDKQYADAKKIDLKANLVERTKKERQVTGNEKNPEYDSYVNFVQSELMNNKYFKDKNLGSVLQSG | not soluble |
| MEEPKLILTVKNNKNNKCIIEILNRLYLKDLNSKAEEIIKNVILVYTSLTPIMAYGLLISAPPSCLAKIYPVDLVIHSVKEREIIDKITEFLKKNIQFKTFYVDCYDRGIKINCREVEIGIGIGLRGFASVDYKNPEKVIVVNVIKDSTYMSVIKKGQEKVSVISLR | soluble |
| MGSDKIHHHHHHMNKIINNILNTCKQYTYILPHKLLRQYIAHYTISIPDTSIKENLTLIPDASGCMIFKFDKKGIESAFWGATTKTTIVKNDIENVLFRVFVEFRPGGVYYLTGLSQRESTDLKISLEDFNTLFSLEVNSIFERTSTIKELVEQLDMLFLSYLLKSNIVDMTIPILENARKQNSIMSVKNISQISCYSERHLNRIFNNSLGMSVKSYLRLLRINLVLQEIQNNKIPFATLAQDIGYYDQSHFINDFKSICGVNPTTYIKNLSDFYNEKYKF | not soluble |
